Experimental data taken from patent publication CN111848803A.

Assays:
[1] = target: GPC3ΔGPI-FLAG重组蛋白 (Homo sapiens (Human)) (UniProt P51654); experiment: ELISA on coated GPC3ΔGPI-FLAG after 2 h treatment of the antibody at pH 2
[2] = target: GPC3ΔGPI-FLAG重组蛋白 (Homo sapiens (Human)) (UniProt P51654); experiment: ELISA on coated GPC3ΔGPI-FLAG after 2 h treatment of the antibody at pH 10
[3] = target: mCherry-GPC3 (on stably expressing HEK293T cells) (UniProt P51654); experiment: immunofluorescence colocalisation on HEK293T cells expressing mCherry-GPC3

抗原结合能力下降 (A450 against pH 7), antibody treated at pH 2 [1] [%] | 抗原结合能力下降 (A450 against pH 7), antibody treated at pH 10 [2] [%] | 皮尔森相关系数 (Pearson correlation of mCherry and Alexa Fluor 488 signals) [3] | Molecule
47.9 | 28.2 | – | HN3-hFc融合抗体 (Fc fusion)
26.1 | 14.4 | 0.94 | 纳米抗体G10 (G10-His, GPC3 nanobody) (VHH, not shown: small tags and cut ends) VHH: QVQLVESGGALVQPGGSLRLSCAASGMTGIFWRLRWYRQAPGKEREWVCGISQLPTPASYEDSVKGRFTCSRDDARNTVYLQLNSLKPEDTAVYYCAAANVLPGLPAELPIYWGQGTQVTVSS
